{"source": "patent US12275803B2", "about": "“Functionalization of biopolymers with growth factor-binding peptides” (Universiteit Twente, priority 2016, dated 2025)", "molecules": {"B1": {"name": "Noggin: specific BMP-2 inhibitor (protein, UniProt Q13253 28-232, looked up)", "Noggin": "QHYLHIRPAPSDNLPLVDLIEHPDPIFDPKEKDLNETLLRSLLGGHYDPGFMATSPPEDRPGGGGGAAGGAEDLAELDQLLRQRPSGAMPSEIKGLEFSEGLAQGKKQRLSKKLRRKLQMWLWSQTFCPVLYAWNDLGSRFWPRYVKVGSCFSKRSCSVPEGMVCKPSKSVHLTVLRWRCQRRGGQRCGWIPIQYPIISECKCSC"}, "B2": {"name": "soluble VEGF: soluble hVEGF added to the medium during starvation (protein)", "chain": "APMAEGGGQNHHEVVKFMDVYQRSYCHPIETLVDIFQEYPDEIEYIFKPSCVPLMRCGGCCNDEGLECVPTEESNITMQIMRIKPHQGQHIGEMSFLQHNKCECRPKKDRARQENPCGPCSERRKHLFVQDPQTCKCSCKNTDSRCKARQLELNERTCRCDKPRR"}}, "key": {"[1]": {"tested_on": "TGFB1 reporter cell line (Mink Lung Epithelium Cells, PAI-1 promoter luciferase)", "assay": "Luciferase assay in TGFB1 reporter cell line", "assay_type": "cell-based", "parameters": "dose or concentration left out as unconfirmed", "settings": "cells on films with immobilized hTGFB1", "protocol": "MLECs were seeded at 64000 cells/cm^2 and allowed to attach overnight at 37° C. in a 5% CO2 incubator. The medium was then replaced by DMEM without FBS and cells incubated for an additional period of 24 hours. Cells were lysed and the luciferase quantified according to the manufacturer's protocol (Promega, E4530). Luciferase values were normalized for DNA content quantified by CyQuant Cell proliferation assay (Invitrogen)."}, "[2]": {"tested_on": "BMP-2 reporter cell line (C2C12 Luc, ID1 promoter luciferase)", "assay": "Luciferase assay in BMP-2 reporter cell line", "assay_type": "cell-based", "settings": "2 ng/mL inhibitor; response to immobilized hBMP-2", "protocol": "For cell experiments, the sterile films were washed three times with PBS and incubated with concentrated hBMP-2 in PBS for one hour with gentle agitation. Subsequently, the films were extensively washed with TBST (0.5%) and PBS to remove any traces of the washing buffer prior to cell seeding.\nC2C12 Luc express luciferase under the control of a ID1 promoter—a BMP-2 target gene (Zilberberg et al., 2007, BMC Cell Biol. 8(41). DOI: 10.1186/1471-2121-8-41).\nC2C12 Luc were seeded on films at 16,000 cells/cm2 in DMEM medium supplemented with 10% FBS and allowed to attach overnight at 37° C. in a 5% CO2 incubator. The cells were lysed the following day and the luciferase quantified according to the manufacturer's protocol (Promega, E4530). Luciferase values were normalized for DNA content quantified by CyQUANT cell proliferation assay (Invitrogen)."}, "HUVECs": {"tested_on": "HUVECs", "assay": "Cell survival of HUVECs after starvation", "assay_type": "cell-based, human", "settings": "20 ng/mL hVEGF in medium during 24 hours starvation; versus native films without hVEGF", "protocol": "Samples were incubated with 1 μg/mL of VEGF (PeproTech) in 0.5% (v/v) PBS TWEEN®20 (PBST) for one hour with gentle agitation. The films were then washed three times for 10 minutes with 0.5% (v/v) PBST and then with PBS for a further 10 minutes. Next, the films were blocked for one hour with PBS containing 1% (w/v) bovine serum albumin (BSA) and subsequently washed as described above. Afterwards, the films were incubated with a primary antibody (2 μg/mL; rabbit polyclonal anti-human VEGF, PeproTech) in the blocking solution during one hour with agitation. The films were washed as mentioned above and then incubated with a secondary antibody (8 μg/mL; goat anti-rabbit ALEXA FLUOR® 594, Invitrogen) in PBS containing 1% w/v BSA for one hour with gentle agitation. Before image acquisition, the films were washed three times for 10 minutes with […], rinsed three times with PBS and dried under a N2 stream. Fluorescence intensity was quantified using ImageJ. […]\nHUVECs at passage 4 were used for experiments. […] Once detached, fresh medium was added to neutralize the trypsin and the cells were counted. […] After 24 hours, the cells were lysed and the DNA content was quantified by CyQUANT cell proliferation assay (Invitrogen), following the manufacturer's instructions."}}, "data": [{"molecule": "Cc1cccc(-c2[nH]c(C(C)(C)C)nc2-c2ccc3c(c2)OCO3)n1.Cl", "note": "[SB-431452, 2-(5-benzo[1,3]dioxol-5-yl-2-tert-butyl-3H-imidazol-4-yl)-6-methylpyridine hydrochloride]", "values": [{"measurement": "luciferase activity in presence of TGF-β1 inhibitor", "setting": "[1]", "result": "completely suppressed"}]}, {"molecule": "B1", "values": [{"measurement": "luciferase activity in presence of BMP-2 inhibitor", "setting": "[2]", "result": "completely suppressed"}]}, {"molecule": "B2", "values": [{"measurement": "survival of HUVECs (total amount of DNA) with soluble VEGF", "setting": "HUVECs", "result": "significant increase in the amount of DNA"}]}]}
